The target in data set [1] is T1, CSL (RBPJ) (Mus musculus, UniProt P31266 53-474). In words: ITC; K = 2.2 +/- 1.4 x10^7 M-1; n=3; ITC: 50 mM sodium phosphate pH 6.5, 150 mM NaCl, 10 C (10 uM CSL in cell, 100 uM DNA in syringe). EMSA: 150 mM KCl, 50 mM Tris pH 7.4, 1 mM DTT, 2% polyvinyl alcohol, 30 ng/ul poly(dI-dC), on ice 30 min, 25 fmol biotin probe in 5 ul. To be noted: protein: recombinant; tags: GST tag cleaved off. (In ITC the heat of successive injections is recorded.)

Data set [2] deals with T1, CSL (RBPJ). The data set can be described thus: ITC; no binding detected; ITC: 50 mM sodium phosphate pH 6.5, 150 mM NaCl, 10 C (10 uM CSL in cell, 100 uM DNA in syringe). EMSA: 150 mM KCl, 50 mM Tris pH 7.4, 1 mM DTT, 2% polyvinyl alcohol, 30 ng/ul poly(dI-dC), on ice 30 min, 25 fmol biotin probe in 5 ul. To be noted: protein: recombinant; tags: GST tag cleaved off.
Data set [3] concerns the target T2, GST-Su(H) (CSL) (Drosophila melanogaster?, UniProt P28159 110-594). In words: competition; failed to compete at 125x; ITC: 50 mM sodium phosphate pH 6.5, 150 mM NaCl, 10 C (10 uM CSL in cell, 100 uM DNA in syringe). EMSA: 150 mM KCl, 50 mM Tris pH 7.4, 1 mM DTT, 2% polyvinyl alcohol, 30 ng/ul poly(dI-dC), on ice 30 min, 25 fmol biotin probe in 5 ul. To be noted: protein: recombinant; tags: N-terminal GST; blunt. On the technique in general: Mobility shift assays separate free from complexed probe on a gel.

For data set [4], the target named is T2, GST-Su(H) (CSL). In words: EMSA; labeled probe; self-competes at 25x excess; ITC: 50 mM sodium phosphate pH 6.5, 150 mM NaCl, 10 C (10 uM CSL in cell, 100 uM DNA in syringe). EMSA: 150 mM KCl, 50 mM Tris pH 7.4, 1 mM DTT, 2% polyvinyl alcohol, 30 ng/ul poly(dI-dC), on ice 30 min, 25 fmol biotin probe in 5 ul. To be noted: protein: recombinant; tags: N-terminal GST; label: 3' biotin when used as probe; blunt.

The target in data set [5] is T2, GST-Su(H) (CSL). The data set can be described thus: competition; not detectable at 125x excess; ITC: 50 mM sodium phosphate pH 6.5, 150 mM NaCl, 10 C (10 uM CSL in cell, 100 uM DNA in syringe). EMSA: 150 mM KCl, 50 mM Tris pH 7.4, 1 mM DTT, 2% polyvinyl alcohol, 30 ng/ul poly(dI-dC), on ice 30 min, 25 fmol biotin probe in 5 ul. To be noted: protein: recombinant; tags: N-terminal GST; blunt.

The target of data set [6] is T2, GST-Su(H) (CSL). In words: competition; EMSA, labeled M1 probe; 2.84-fold at 10x; ITC: 50 mM sodium phosphate pH 6.5, 150 mM NaCl, 10 C (10 uM CSL in cell, 100 uM DNA in syringe). EMSA: 150 mM KCl, 50 mM Tris pH 7.4, 1 mM DTT, 2% polyvinyl alcohol, 30 ng/ul poly(dI-dC), on ice 30 min, 25 fmol biotin probe in 5 ul. To be noted: protein: recombinant; tags: N-terminal GST; blunt.

Data set [7] addresses T1, CSL (RBPJ). The data set can be described thus: ITC; K = 5.9 +/- 1.0 x10^5 M-1; n=3; ITC: 50 mM sodium phosphate pH 6.5, 150 mM NaCl, 10 C (10 uM CSL in cell, 100 uM DNA in syringe). EMSA: 150 mM KCl, 50 mM Tris pH 7.4, 1 mM DTT, 2% polyvinyl alcohol, 30 ng/ul poly(dI-dC), on ice 30 min, 25 fmol biotin probe in 5 ul. To be noted: protein: recombinant; tags: GST tag cleaved off.

Data set [8] concerns the target T2, GST-Su(H) (CSL). In words: competition; EMSA, labeled M1 probe; 2.4-fold vs M3; ITC: 50 mM sodium phosphate pH 6.5, 150 mM NaCl, 10 C (10 uM CSL in cell, 100 uM DNA in syringe). EMSA: 150 mM KCl, 50 mM Tris pH 7.4, 1 mM DTT, 2% polyvinyl alcohol, 30 ng/ul poly(dI-dC), on ice 30 min, 25 fmol biotin probe in 5 ul. To be noted: protein: recombinant; tags: N-terminal GST; blunt.

Data set [9] addresses T1, CSL (RBPJ). In words: ITC; K = 2.0 +/- 0.5 x10^6 M-1; n=3; ITC: 50 mM sodium phosphate pH 6.5, 150 mM NaCl, 10 C (10 uM CSL in cell, 100 uM DNA in syringe). EMSA: 150 mM KCl, 50 mM Tris pH 7.4, 1 mM DTT, 2% polyvinyl alcohol, 30 ng/ul poly(dI-dC), on ice 30 min, 25 fmol biotin probe in 5 ul. To be noted: protein: recombinant; tags: GST tag cleaved off.

The Kd is the equilibrium constant for the complex coming apart.

T1 sequence (P31266 53-474): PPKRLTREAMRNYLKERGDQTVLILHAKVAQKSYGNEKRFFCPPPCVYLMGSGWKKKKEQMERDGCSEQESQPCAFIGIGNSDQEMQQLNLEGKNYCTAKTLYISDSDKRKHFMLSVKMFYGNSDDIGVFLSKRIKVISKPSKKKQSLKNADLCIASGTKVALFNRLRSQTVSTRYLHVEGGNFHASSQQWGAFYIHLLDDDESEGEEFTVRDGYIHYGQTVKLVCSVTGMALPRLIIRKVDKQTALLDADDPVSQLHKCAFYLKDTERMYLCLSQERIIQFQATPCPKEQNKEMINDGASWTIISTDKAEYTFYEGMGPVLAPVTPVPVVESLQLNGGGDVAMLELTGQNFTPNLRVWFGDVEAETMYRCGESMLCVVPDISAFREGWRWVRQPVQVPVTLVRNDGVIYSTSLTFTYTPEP
T2 sequence (P28159 110-594): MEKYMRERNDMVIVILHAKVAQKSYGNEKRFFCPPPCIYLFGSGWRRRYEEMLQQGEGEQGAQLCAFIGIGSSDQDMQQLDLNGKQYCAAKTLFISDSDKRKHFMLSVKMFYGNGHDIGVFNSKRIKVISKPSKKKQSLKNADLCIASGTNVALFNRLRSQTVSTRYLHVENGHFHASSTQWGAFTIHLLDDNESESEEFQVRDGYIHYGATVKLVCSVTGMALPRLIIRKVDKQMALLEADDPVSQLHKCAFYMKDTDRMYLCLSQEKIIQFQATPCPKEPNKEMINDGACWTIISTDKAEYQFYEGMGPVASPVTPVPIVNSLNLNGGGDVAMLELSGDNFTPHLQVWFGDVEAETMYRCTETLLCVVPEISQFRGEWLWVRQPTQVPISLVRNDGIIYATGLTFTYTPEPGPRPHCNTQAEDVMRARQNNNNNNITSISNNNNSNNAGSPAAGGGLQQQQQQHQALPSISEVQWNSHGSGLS
T2 sequence (P28159 110-594): as above

B1: ITC duplex CGTGGGAA (dsDNA)
DNA 1: GTTACCGTGGGAAAGAAAG
DNA 2: CTTTCTTTCCCACGGTAAC
As to B1, the equilibrium dissociation constant (Kd) in the data set with CSL (RBPJ) [1] is 60 nM.

B2: ITC duplex TCATACCT (dsDNA)
DNA 1: GCTACTCATACCTAGAACG
DNA 2: CGTTCTAGGTATGAGTAGC
Take B2: the binding result with CSL (RBPJ) [2] was “no binding”.

B3: M8 (S7, TATAAGAA) (dsDNA)
DNA 1: ACCGAAACTATAAGAACTGGTAGAAAG
DNA 2: CTTTCTACCAGTTCTTATAGTTTCGGT
Turning to B3, the binding result with GST-Su(H) (CSL) [3] is on record as “no binding”.

B4: M1 (S1, CGTGGGAA) (dsDNA)
DNA 1: ACCGAAACCGTGGGAACTGGTAGAAAG
DNA 2: CTTTCTACCAGTTCCCACGGTTTCGGT
For B4, the binding result with GST-Su(H) (CSL) [4] is reported as “binds”.

B5: M11 (S10, CATGGGGA) (dsDNA)
DNA 1: ACCGAAACCATGGGGACTGGTAGAAAG
DNA 2: CTTTCTACCAGTCCCCATGGTTTCGGT
For the molecule B5, in the data set with GST-Su(H) (CSL) [5], the binding result is reported as “no binding”.

B6: M3 (S2, TGTGGGAA) (dsDNA)
DNA 1: ACCGAAACTGTGGGAACTGGTAGAAAG
DNA 2: CTTTCTACCAGTTCCCACTGTTTCGGT
Turning to B6, the binding signal in the data set with GST-Su(H) (CSL) [6] was 3.67 fold difference vs M1 at 25x excess.

B7: ITC duplex CGTGTGAC (dsDNA)
DNA 1: GTTACCGTGTGACAGAAAG
DNA 2: CTTTCTGTCACACGGTAAC
Regarding B7, the equilibrium dissociation constant (Kd) with CSL (RBPJ) [7] was 1720 nM.

B8: M4 (S3, CGTGTGAA) (dsDNA)
DNA 1: ACCGAAACCGTGTGAACTGGTAGAAAG
DNA 2: CTTTCTACCAGTTCACACGGTTTCGGT
Regarding B8, the binding signal with GST-Su(H) (CSL) [8] is 9 fold difference vs M1 at 25x excess.

B9: ITC duplex TGTGGGAA (dsDNA)
DNA 1: GTTACTGTGGGAAAGAAAG
DNA 2: CTTTCTTTCCCACAGTAAC
On to B9, for which the equilibrium dissociation constant (Kd) in the data set with CSL (RBPJ) [9] came out at 500 nM.
